According to patent US20230406921A1:
Changes are numbered by the printed parent chain.

B1: h140Hm13/h140Lm11 (antibody, V domains shown)
VH: EVQLVQSGAEVKKPGASVKVSCKASGYKFTNYVMSWVRQAPGQRLEWMGYINPYNDAIKYNEKFTGRVTITRDTSASTAYMELSSLRSEDTAVYYCAREGDFYANYGRLGFAYWGQGTLVTVSS
VL: DIQMTQSPSSLSASVGDRVTITCRASQDITNYLNWYQQKPGKAPKLLIYYTSRLSSGVPSRFSGSGSGTDYTFTISSLQPEDIATYFCQQGDTRPYTFGGGTKVEIK
B2: h140Hm13/h140Lm16 (antibody, V domains shown)
VH: B1 VH
VL: B1 VL with S55Q, R94S
B3: h140Hm13/h140Lm15 (antibody, V domains shown)
VH: B1 VH
VL: B1 VL with S55Q, R94K
B4: h140Hm13/h140Lm18 (antibody, V domains shown)
VH: B1 VH
VL: B1 VL with S55Q, R94N
B5: h140Hm13/h140Lm13 (antibody, V domains shown)
VH: B1 VH
VL: B1 VL with S55H, R94F
B6: h140Hm13/h140Lm17 (antibody, V domains shown)
VH: B1 VH
VL: B1 VL with S55Q, R94E
B7: h140Hm13/h140Lm14 (antibody, V domains shown)
VH: B1 VH
VL: B1 VL with S55Q, R94Y
B8: h140Hm13/h140Lm12 (antibody, V domains shown)
VH: B1 VH
VL: B1 VL with S55Q

biological target: CD47 on the surface of human red blood cells (human) (UniProt Q08722); assay: FACS, hRBC, 500 nM

| Binder | FACS (MFI) |
| --- | --- |
| B1 | 789 |
| B2 | 721 |
| B3 | 954 |
| B4 | 697 |
| B5 | 1760 |
| B6 | 689 |
| B7 | 921 |
| B8 | 946 |
